Test: yeast display, Sf9 membrane polyspecificity reagent, FACS + sequencing; frameworks hold sequencing errors
Method in brief: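 In a synthetic yeast display library (Saccharomyces cerevisiae BJ5465), nanobody expression was induced with galactose for 36–48 hours. FACS gates were set low and high (top ~1%) using anti-HA fluorescence for expression and streptavidin fluorescence for binding of the Sf9 membrane reagent. Each polyreactivity label is drawn from the gate of origin.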

Sequence	polyreactivity (PSR sort gate)
QVQLVESVGGLVQAGGSLRLSCAASGSTFGYNAMGWYRHAPGKEMELVAAITRSSSRTYYADYVKGRFTISRDNAKNTVYLQMNSLKPEDTAVYYCAKVRYVVGSIFNYSYNYWGQGTQVTVSS	high polyreactivity
QVQLVESGGGLVQAGGSLRLSCAASGLIFTSYAMGWYRQAPGKERELVAAISYSGGTTFYADSVKGRFTISRDNAKNTVYLQMNSLKPEDTAVYYCAADSLSTTHDTLGYDRDDYWGQGTQVTVSS	low polyreactivity
QVHLVESGGGLVQAGGSLRVSCAASGSIFLDNAMGWYRQAPGKERELVADISYSGGSTYYADSVKGRFTISRDNAKNTVYLQMISLKPEDTAVYYCAAGVQLTVPPLRSSVTEYDYWGQGSQVTVSS	low polyreactivity
QVQLVESGGGLVQAGGSLRLSCAASGSIFEFYTMGWYRQAPGKERELVAAITASGGSTYYADSVKGRFTISRDNAKNTVYLQMNSLKPEDTAVYYCAARFRKQSKTPSPRRYDSWGQGTQVTVSS	high polyreactivity
QVQLVESGGGLVQAGGSLRLSCAASGNIFESYGMGWYRHAPGKERELVATINTSSGSTYDADSVKGRFTISRDNAKNTVYLQMNSLKPEDTAVYYCAAEWYPYPWGYGYWGQGTQVTVSS	low polyreactivity
QVQLVESGGGLVQAGGSLRLSCAASGSTSVQYAMGWYRQAPGKERELVAAIDRSGGSTSYADSVKGRFTISRDNAKNTVYLQMNTLKPEDTAVYYCNADPVRSTYSYDYWGQGTQVTVSS	low polyreactivity
QVQLVESGGGLVQAGGSLRLSCAASGSIFSYNAMGWSRQAPGNERELVARISYSGGSTYYADSVKGRFTISRDNAKNTVYLQMNSLKPEDTAVYYCAKRAYGWPYDYWGQGTQVTVSS	high polyreactivity
QVQLVESGGGLVQAGGSIRLSCAASGITFAWNAMGWYRQAPGKERELVAAITKRGGSTYYADSVKGRFTISRDNAKNTVYLQMNSLKPEYTAFYYCAARGYISRYDARANAVQGNYWGQGTQVTVSS	high polyreactivity
QVQLVESGGGLVQAGGSLRLSCAASGYTFAWYAMGWYRQAPGKERELVAAITVSGGSTYYADSVKGRFTISRDNAKNTVYLQMNSLKPEDTAVYYCAAVGKSPSRFGYWGQGTQVTVSS	low polyreactivity
QVQLVESGGGLVQAGGSLRLSCAASGFIFAGYAMGWYRQAPGKERELVAAINRNGRSTYYADSVKGRFTISRDNAKNTVYLQMNSLKPEDTAVYYCNARSFARIGAGKGDYWGQGTQVTVSS	high polyreactivity
QVQLVESGGGLVQAGGSLRLSCAASGSIFPPYALGWYRQAPGKERELVAAIDWGGSSTYYADSVKGRFTISRDNAKYTVYLQMNSLKPEATAVYYCAAEVVHGYYLYEYWGQGTQVTVSS	high polyreactivity
QVQLVESGGGLVQAGGSLRLSCAASGRTFYLNAMGWYRPAPGKERELVAAITRTGGRTYYADSVKGRFTISRDNAKNTVYLQMNSLKPEDTAVYYCAADYVNYSYEYWGQGTQVTVSS	high polyreactivity
QVQLVESGGGLVQAGGSLRLSCAAYGINFLQYAMGWYRQAPGKDRELVAAITRRGDRTYYADSVKGRFTISRDNAKYTVYLQMISLKPEDTAVYYCAASYWYRDYYYWGQGTQVTVSS	high polyreactivity
QVQLVESGGGLVQAGGSLRLSCAASGRTFRYYVMGWYRQAPGKERELVASITWRGTSTYYADSVKGRFTISRDNAKNTVYLQMNSLKPEDTAVYYCNAQGVYFRWSGYDYWGQGTQVTVSS	high polyreactivity
QVQLVESGGGLVQAGGSLRLSCAASGFIFAKYAMGWYRQAPGKERELVAAITSGGSTNYADSVKGRFTISRDNAKNTVYLQMNSLKPEYTAVYYCNRGFDWWYRYRHYDYWGQGTQVTVSS	low polyreactivity
QVQLVESGGGLVQAGGSLRLSCAASGRTFYNAMGWYRQAPGKERELVAAITTGGGTKYADSVKGRFTISRDNAKNTVYLQMNSLKPEDTEVYYCATDAPDRTHSDSGFDAGYDYWGQGTQVTLSS	low polyreactivity
